Experimental data reported in publication PMC3010076 (The Journal of Cell Biology, 2010).

B1: C-terminally TAP-tagged Myo1 with a deletion of the TD2 region (natural protein, S. cerevisiae, UniProt P08964 1-1928, looked up)
chain: MTGGQSCSSNMIVWIPDEKEVFVKGELMSTDINKNKFTGQEEQIGIVHPLDSTEVSNLVQVRISDVFPVNPSTFDKVENMSELTHLNEPSVLYNLEKRYDCDLIYTYSGLFLVAINPYHNLNLYSEDHINLYHNKHNRLSKSRLDENSHEKLPPHIFAIAEEAYENLLSEGKDQSILVTGESGAGKTENTKKILQYLASITSGSPSNIAPVSGSSIVESFEMKILQSNPILESFGNAQTVRNNNSSRFGKFIKIEFNEHGMINGAHIEWYLLEKSRIVHQNSKERNYHIFYQLLSGLDDSELKNLRLKSRNVKDYKILSNSNQDIIPGINDVENFKELLSALNIIGFSKDQIRWIFQVVAIILLIGNIEFVSDRAEQASFKNDVSAICSNLGVDEKDFQTAILRPRSKAGKEWVSQSKNSQQAKFILNALSRNLYERLFGYIVDMINKNLDHGSATLNYIGLLDIAGFEIFENNSFEQLCINYTNEKLQQFFNNHMFVLEQSEYLKENIQWDYIDYGKDLQLTIDLIESKGPPTGVLPLLDEEAVLPKSTDESFYSKLISTWDQNSSKFKRSRLKNGFILKHYAGDVEYTVEGWLSKNKDPLNDNLLSLLSSSQNDIISKLFQPEGEKSSSAGVEANISNQEVKKSARTSTFKTTSSRHREQQITLLNQLASTHPHFVRCIIPNNVKKVKTFNRRLILDQLRCNGVLEGIRLAREGYPNRIAFQEFFQRYRILYPENSTTTTFSSKLKASTKQNCEFLLTSLQLDTKVYKIGNTKLFFKAGVLADLEKQKDVKLNNIMIKLTATIRGYTVRKEITYHLQKLKKTRVIGNTFRLYNRLVKEDPWFNLFIRIKPLLTSSNDMTRTKKFNEQINKLKNDLQEMESKKKFLEEKNQKTVNELENTQDLLNQEKENLRKNESLLNRVKTSSETLQKQFDDLVSEKDEISREKLEVAQNLEEAHQKIQGLQETIREREATLEKLHSKNNELIKQISDLNCDISKEQSSQSLIKESKLKLENEIKRLKDVINSKEEEIKSFNDKLSSSEEDLDIKLVTLEKNCNIAMSRLQSLVTENSDLRSKNENFKKEKAALNNQLKNKESELLKMKEKIDNHKKELATFSKQRDDAVSEHGKITAELKETRIQLTEYKSNYQKIKEEYSNFQRETKEQEQKKRNSLVESLNDSKIKELEARLSQEISLNQYLNKRISGNSVETNISSTRRSTSYSDDVGDIIKNRDSISKYEEEIRYYKLENYKLQEILNESNGKLSQLTLDLRQSKSKEALLSEQLDRLQKDLESTERQKELLSSTIKQQKQQFENCMDDLQGNELRLREHIHALKQAEEDVKNMASIIEKLKTQNKQKEKLIWEREMERNDSDMQLQETLLELKRVQDVKKILSDDLAHLKERLSAVEDRSQYTDEINRLKEELNCSLKAETNLKKEFATLKYKLETSTNDSEAKISDLLKQLDHYTKVVEMLNNEKDAISLAEKELYQKYEALNTECESLKGKIVSLTKIKQELESDLNQKTDALQISNAALSSSTQKNKEITEKIKYLEETLQLQMEQNSRNGELVKTLQASCNGYKDKFDDEKQKNIDLYEENQTLQKLNTDLQLQLKNLHERLSDTTEKNAWLSKIHELENMVSLETDLKYEEMKKNKSLERAVEELQTKNSQQTDVIELANKNRSEFEEATLKYEAQISDLEKYISQQELEMKKSIRDNSSYRDKVQEMAQEIEFWKSRYESTMIGSKNIDSNNAQSKIFS
B2: C-terminally TAP-tagged full-length Myo1 (natural protein, S. cerevisiae, UniProt P08964 1-1928, looked up)
chain: MTGGQSCSSNMIVWIPDEKEVFVKGELMSTDINKNKFTGQEEQIGIVHPLDSTEVSNLVQVRISDVFPVNPSTFDKVENMSELTHLNEPSVLYNLEKRYDCDLIYTYSGLFLVAINPYHNLNLYSEDHINLYHNKHNRLSKSRLDENSHEKLPPHIFAIAEEAYENLLSEGKDQSILVTGESGAGKTENTKKILQYLASITSGSPSNIAPVSGSSIVESFEMKILQSNPILESFGNAQTVRNNNSSRFGKFIKIEFNEHGMINGAHIEWYLLEKSRIVHQNSKERNYHIFYQLLSGLDDSELKNLRLKSRNVKDYKILSNSNQDIIPGINDVENFKELLSALNIIGFSKDQIRWIFQVVAIILLIGNIEFVSDRAEQASFKNDVSAICSNLGVDEKDFQTAILRPRSKAGKEWVSQSKNSQQAKFILNALSRNLYERLFGYIVDMINKNLDHGSATLNYIGLLDIAGFEIFENNSFEQLCINYTNEKLQQFFNNHMFVLEQSEYLKENIQWDYIDYGKDLQLTIDLIESKGPPTGVLPLLDEEAVLPKSTDESFYSKLISTWDQNSSKFKRSRLKNGFILKHYAGDVEYTVEGWLSKNKDPLNDNLLSLLSSSQNDIISKLFQPEGEKSSSAGVEANISNQEVKKSARTSTFKTTSSRHREQQITLLNQLASTHPHFVRCIIPNNVKKVKTFNRRLILDQLRCNGVLEGIRLAREGYPNRIAFQEFFQRYRILYPENSTTTTFSSKLKASTKQNCEFLLTSLQLDTKVYKIGNTKLFFKAGVLADLEKQKDVKLNNIMIKLTATIRGYTVRKEITYHLQKLKKTRVIGNTFRLYNRLVKEDPWFNLFIRIKPLLTSSNDMTRTKKFNEQINKLKNDLQEMESKKKFLEEKNQKTVNELENTQDLLNQEKENLRKNESLLNRVKTSSETLQKQFDDLVSEKDEISREKLEVAQNLEEAHQKIQGLQETIREREATLEKLHSKNNELIKQISDLNCDISKEQSSQSLIKESKLKLENEIKRLKDVINSKEEEIKSFNDKLSSSEEDLDIKLVTLEKNCNIAMSRLQSLVTENSDLRSKNENFKKEKAALNNQLKNKESELLKMKEKIDNHKKELATFSKQRDDAVSEHGKITAELKETRIQLTEYKSNYQKIKEEYSNFQRETKEQEQKKRNSLVESLNDSKIKELEARLSQEISLNQYLNKRISGNSVETNISSTRRSTSYSDDPLDKEDIIKKYYDLQLAFTEITRNLENEIEEKKNLISRLRFTETRLASSSFEDQKIKAQMKKLKKLIQDMDPSIPLDSILNEPLDNCPDKESDINKLMLEVDYLKRQLDIETRAHYDAENAISALHSKFRKIQGESSLSSSDIYKLKFEASEERVKSLEDKLKTMPLRDRTNLPVGDIIKNRDSISKYEEEIRYYKLENYKLQEILNESNGKLSQLTLDLRQSKSKEALLSEQLDRLQKDLESTERQKELLSSTIKQQKQQFENCMDDLQGNELRLREHIHALKQAEEDVKNMASIIEKLKTQNKQKEKLIWEREMERNDSDMQLQETLLELKRVQDVKKILSDDLAHLKERLSAVEDRSQYTDEINRLKEELNCSLKAETNLKKEFATLKYKLETSTNDSEAKISDLLKQLDHYTKVVEMLNNEKDAISLAEKELYQKYEALNTECESLKGKIVSLTKIKQELESDLNQKTDALQISNAALSSSTQKNKEITEKIKYLEETLQLQMEQNSRNGELVKTLQASCNGYKDKFDDEKQKNIDLYEENQTLQKLNTDLQLQLKNLHERLSDTTEKNAWLSKIHELENMVSLETDLKYEEMKKNKSLERAVEELQTKNSQQTDVIELANKNRSEFEEATLKYEAQISDLEKYISQQELEMKKSIRDNSSYRDKVQEMAQEIEFWKSRYESTMIGSKNIDSNNAQSKIFS
B3: MBP-Myo1-tail-TD2Δ (domain or fragment, S. cerevisiae, UniProt P08964 856-1928, looked up)
chain: SSNDMTRTKKFNEQINKLKNDLQEMESKKKFLEEKNQKTVNELENTQDLLNQEKENLRKNESLLNRVKTSSETLQKQFDDLVSEKDEISREKLEVAQNLEEAHQKIQGLQETIREREATLEKLHSKNNELIKQISDLNCDISKEQSSQSLIKESKLKLENEIKRLKDVINSKEEEIKSFNDKLSSSEEDLDIKLVTLEKNCNIAMSRLQSLVTENSDLRSKNENFKKEKAALNNQLKNKESELLKMKEKIDNHKKELATFSKQRDDAVSEHGKITAELKETRIQLTEYKSNYQKIKEEYSNFQRETKEQEQKKRNSLVESLNDSKIKELEARLSQEISLNQYLNKRISGNSVETNISSTRRSTSYSDDVGDIIKNRDSISKYEEEIRYYKLENYKLQEILNESNGKLSQLTLDLRQSKSKEALLSEQLDRLQKDLESTERQKELLSSTIKQQKQQFENCMDDLQGNELRLREHIHALKQAEEDVKNMASIIEKLKTQNKQKEKLIWEREMERNDSDMQLQETLLELKRVQDVKKILSDDLAHLKERLSAVEDRSQYTDEINRLKEELNCSLKAETNLKKEFATLKYKLETSTNDSEAKISDLLKQLDHYTKVVEMLNNEKDAISLAEKELYQKYEALNTECESLKGKIVSLTKIKQELESDLNQKTDALQISNAALSSSTQKNKEITEKIKYLEETLQLQMEQNSRNGELVKTLQASCNGYKDKFDDEKQKNIDLYEENQTLQKLNTDLQLQLKNLHERLSDTTEKNAWLSKIHELENMVSLETDLKYEEMKKNKSLERAVEELQTKNSQQTDVIELANKNRSEFEEATLKYEAQISDLEKYISQQELEMKKSIRDNSSYRDKVQEMAQEIEFWKSRYESTMIGSKNIDSNNAQSKIFS

Biological target: the molecule itself
Assay: rotary-shadowing EM

Protein	stoichiometry N
B1	2
B2	2
B3	2
